This is an account of results in patent US20140271682, “HUMAN HOMEOBOX GENE VENTX AND MACROPHAGE TERMINAL DIFFERENTIATION AND ACTIVATION, COMPOSITIONS AND METHODS THEREOF” (published 2014).

The data set concerns the target T1, VentX (Homo sapiens, UniProt O95231 SEQ:1-258).
T1 sequence: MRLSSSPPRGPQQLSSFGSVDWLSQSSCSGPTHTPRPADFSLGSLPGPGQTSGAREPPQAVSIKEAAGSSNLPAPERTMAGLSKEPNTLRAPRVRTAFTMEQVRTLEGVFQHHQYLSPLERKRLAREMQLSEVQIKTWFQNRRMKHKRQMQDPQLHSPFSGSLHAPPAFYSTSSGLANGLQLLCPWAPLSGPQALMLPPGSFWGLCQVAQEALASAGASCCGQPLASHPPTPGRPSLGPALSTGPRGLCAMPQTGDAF
Description: EMSA; fluorescence-based EMSA kit. As to conditions: tags: pCS2-VentX, TNT reticulocyte lysate. The procedure: Lysate Systems, Promega). […] Gel shift assay was performed with a fluorescence-based Electrophoretic Mobility Shift Assay (EMSA) Kit from Invitrogen following the manufacturer's instruction. The following double-stranded oligonucleotides were used in the experiments: 5′-[…]-3′ (wild type M-CSFR probe, putative homeodomain binding sequence is in bold and underlined); 5′-[…]-3′ (mutant M-CSFR);
(Mobility shift assays separate free from complexed probe on a gel.)

B1: M-CSFR promoter probe wild type (dsDNA)
DNA 1: CTGCGTCTCTAAAATAATAATAATAAATTTTTAAAAGATATGC
DNA 2: GCATATCTTTTAAAAATTTATTATTATTATTTTAGAGACGCAG
For B1, the binding result was “binds”.
